{
  "source": "paper PMC6453957",
  "about": "“Specific inhibition of splicing factor activity by decoy RNA oligonucleotides”",
  "molecular_target": "T1, RBFOX1 RRM (UniProt Q9NWB1 109-208)",
  "T1 sequence": "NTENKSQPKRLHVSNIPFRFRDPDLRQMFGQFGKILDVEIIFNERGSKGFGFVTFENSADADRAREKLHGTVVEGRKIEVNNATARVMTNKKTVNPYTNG",
  "experiment": "NMR 1H-15N HSQC titration; 313 K; very large perturbations; switchSENSE titration: T100 (10 mM Tris-HCl pH 7.4, 100 mM NaCl, 0.05% Tween20), 37 C; sizing: T40 (same with 40 mM NaCl), 37 C; NMR: NMR buffer (RNA in T40), 313 K",
  "details": "protein: recombinant; tags: N-terminal 6xHis; single strand",
  "data": [
    {"binder": "UGCAUGU (ssRNA)", "note": "[RBFOXi NMR RNA]", "values": [
      {"measurement": "binding result", "result": "binds"}
    ]}
  ]
}
